Measured values: the supplement of paper PMC6755084

B1: F1*; the commonest letter at each place (parent)
chain: GAGACCGCAACTGAAAAGTTGTTATCACTTGTCGTAAGACACTTTGGATGGGTTGAAGTTCTGCACGTAGAAGCAAAAGGC

Variants of: B1
Assay: fraction ligated after 30 min (ligated reads / total reads); higher = more ligase activity
Conditions: with F1*sub RNA substrate (template-directed ligation), 42 °C
Procedure, shortened: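 Ligase ribozyme variants were made from oligo-pool templates by PCR amplification, T7 transcription and gel purification. After gel separation, ligated and unligated bands were reverse transcribed with barcoded primers and sequenced on a MiSeq, with core bases filtered at quality ≥20. The fraction ligated for each variant was the number of ligated reads divided by total reads.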

Variant | fraction ligated
A39T A56G | 0.78
A39T A56T | 0.807
A39T A56C | 0.761
A39C G55T | 0.802
A39C G55C | 0.695
A39C G55A | 0.821
G38A C40A | 0.83
G38A C40T | 0.833
G38A C40G | 0.843
G38A G47A | 0.796
G38A G47C | 0.163
G38A G47T | 0.324
A39C C42T | 0.827
A39C C42G | 0.834
A39C C42A | 0.842
G38A T43A | 0.835
G38A T43C | 0.816
G38A T43G | 0.8
A39G | 0.839
A39T | 0.833
A39C | 0.832
A39T A57T | 0.781
A39T A57C | 0.792
A39T A57G | 0.869

Variant | fraction ligated
A37T G55C | 0.8
A37T G55A | 0.862
A37T G55T | 0.828
G38T T45A | 0.783
G38T T45G | 0.0535
G38T T45C | 0.627
G38C C42T | 0.841
G38C C42A | 0.857
G38C C42G | 0.843
G38A C42A | 0.854
G38A C42G | 0.837
G38A C42T | 0.87
C40A A56C | 0.711
C40A A56G | 0.785
C40A A56T | 0.812
A39G G47T | 0.389
A39G G47A | 0.795
A39G G47C | 0.343
A39G A41G | 0.791
A39G A41T | 0.796
A39G A41C | 0.781
A37T A41C | 0.785
A37T A41G | 0.799
A37T A41T | 0.815

Variant | fraction ligated
A39C G50A | 0.292
A39C G50T | 0.503
A39C G50C | 0.123
G38T A57C | 0.811
G38T A57G | 0.862
G38T A57T | 0.812
G38T T49A | 0.757
G38T T49G | 0.76
G38T T49C | 0.204
G38T A48T | 0.129
G38T A48C | 0.757
G38T A48G | 0.792
A39G A57T | 0.829
A39G A57G | 0.823
A39G A57C | 0.821
G38A G55C | 0.781
G38A G55T | 0.811
G38A G55A | 0.838
A39C A48G | 0.776
A39C A48C | 0.0845
A39C A48T | 0.465
A37T T43C | 0.806
A37T T43A | 0.848
A37T T43G | 0.804

Variant | fraction ligated
A39G T43A | 0.838
A39G T43C | 0.814
A39G T43G | 0.815
G38T G47T | 0.139
G38T G47C | 0.114
G38T G47A | 0.762
A39G A56G | 0.792
A39G A56C | 0.787
A39G A56T | 0.781
C40A A41T | 0.81
C40A A41G | 0.766
C40A A41C | 0.811
A39T G46C | 0.64
A39T G46A | 0.805
A39T G46T | 0.771
A37T T45A | 0.787
A37T T45G | 0.408
A37T T45C | 0.768
G38T A39G | 0.798
G38T A39C | 0.79
G38T A39T | 0.817
G38C A39C | 0.752
G38C A39G | 0.811
G38C A39T | 0.806

Variant | fraction ligated
A37T T44A | 0.834
A37T T44C | 0.847
A37T T44G | 0.825
A39T T45A | 0.744
A39T T45G | 0.1
A39T T45C | 0.676
A39C A41C | 0.792
A39C A41T | 0.751
A39C A41G | 0.741
A39C C40A | 0.797
A39C C40T | 0.784
A39C C40G | 0.811
C40A A57G | 0.843
C40A A57C | 0.812
C40A A57T | 0.792
A39G G55C | 0.801
A39G G55A | 0.844
A39G G55T | 0.819
G38C T45C | 0.0602
G38C T45G | 0.0325
G38C T45A | 0.551
A37T A56C | 0.786
A37T A56G | 0.807
A37T A56T | 0.83

Variant | fraction ligated
A37T A39T | 0.831
A37T A39G | 0.837
A37T A39C | 0.785
G38C T49A | 0.233
G38C T49G | 0.255
G38C T49C | 0.0586
G38C A56G | 0.7
G38C A56C | 0.209
G38C A56T | 0.813
G38T C42G | 0.845
G38T C42A | 0.842
G38T C42T | 0.851
C40A A48T | 0.0719
C40A A48G | 0.739
C40A A48C | 0.658
G38A A48G | 0.796
G38A A48T | 0.252
G38A A48C | 0.766
A37T G50T | 0.793
A37T G50C | 0.388
A37T G50A | 0.602
G38C G50C | 0.0192
G38C G50T | 0.314
G38C G50A | 0.101

Variant | fraction ligated
G38T A56C | 0.745
G38T A56T | 0.826
G38T A56G | 0.806
G38C G46C | 0.523
G38C G46T | 0.697
G38C G46A | 0.791
A39G T45C | 0.792
A39G T45A | 0.784
A39G T45G | 0.389
G38A T49G | 0.785
G38A T49C | 0.245
G38A T49A | 0.782
A39G A48G | 0.814
A39G A48C | 0.766
A39G A48T | 0.824
G38T A41T | 0.798
G38T A41G | 0.792
G38T A41C | 0.785
G38C A57C | 0.824
G38C A57T | 0.828
G38C A57G | 0.87
G38C T43A | 0.825
G38C T43G | 0.812
G38C T43C | 0.822

Variant | fraction ligated
C40A C42T | 0.818
C40A C42G | 0.803
C40A C42A | 0.821
G38T C40T | 0.805
G38T C40G | 0.82
G38T C40A | 0.836
A39T G55C | 0.738
A39T G55T | 0.804
A39T G55A | 0.786
G38C C40G | 0.813
G38C C40T | 0.802
G38C C40A | 0.811
A37T T49A | 0.802
A37T T49C | 0.733
A37T T49G | 0.791
G38T G50A | 0.386
G38T G50T | 0.723
G38T G50C | 0.134
G38C G55C | 0.321
G38C G55A | 0.826
G38C G55T | 0.768
A39T T43C | 0.795
A39T T43A | 0.829
A39T T43G | 0.772

Variant | fraction ligated
A39T A48C | 0.633
A39T A48T | 0.541
A39T A48G | 0.778
A37T A57T | 0.838
A37T A57C | 0.854
A37T A57G | 0.842
A39C T45A | 0.778
A39C T45G | 0.138
A39C T45C | 0.634
A39T G47T | 0.22
A39T G47A | 0.759
A39T G47C | 0.229
A39T G50C | 0.0837
A39T G50T | 0.413
A39T G50A | 0.239
A39C G46C | 0.764
A39C G46A | 0.802
A39C G46T | 0.776
A39G C40G | 0.802
A39G C40A | 0.839
A39G C40T | 0.844
G38A A41C | 0.782
G38A A41T | 0.793
G38A A41G | 0.765

Variant | fraction ligated
G38A G46C | 0.792
G38A G46A | 0.805
G38A G46T | 0.791
G38A T44C | 0.818
G38A T44A | 0.838
G38A T44G | 0.848
G38C T44C | 0.819
G38C T44A | 0.845
G38C T44G | 0.839
A39T C40T | 0.809
A39T C40A | 0.818
A39T C40G | 0.808
A39C A56G | 0.779
A39C A56T | 0.771
A39C A56C | 0.746
A39C T49A | 0.706
A39C T49G | 0.737
A39C T49C | 0.159
A37T A48G | 0.804
A37T A48C | 0.763
A37T A48T | 0.675
A39G G50A | 0.671
A39G G50C | 0.507
A39G G50T | 0.789

Variant | fraction ligated
G38T G55A | 0.823
G38T G55C | 0.781
G38T G55T | 0.798
A39T T49C | 0.0992
A39T T49A | 0.717
A39T T49G | 0.769
A37T G47C | 0.178
A37T G47A | 0.806
A37T G47T | 0.346
G38T G46C | 0.787
G38T G46T | 0.782
G38T G46A | 0.801
A39T C42T | 0.829
A39T C42A | 0.846
A39T C42G | 0.817
A39C T44G | 0.801
A39C T44A | 0.799
A39C T44C | 0.797
G38C A41G | 0.793
G38C A41C | 0.807
G38C A41T | 0.785
G38C A48C | 0.269
G38C A48G | 0.53
G38C A48T | 0.0108

Variant | fraction ligated
A39G T44G | 0.836
A39G T44C | 0.849
A39G T44A | 0.816
G38T T44G | 0.828
G38T T44A | 0.823
G38T T44C | 0.831
A37T G46C | 0.8
A37T G46T | 0.784
A37T G46A | 0.807
C40A | 0.833
A37T C40G | 0.82
A37T C40A | 0.809
A37T C40T | 0.842
G38A G50T | 0.72
G38A G50C | 0.194
G38A G50A | 0.391
C40A G46T | 0.792
C40A G46A | 0.819
C40A G46C | 0.817
A39G T49A | 0.805
A39G T49G | 0.791
A39G T49C | 0.714
A37T G38C | 0.841
A37T G38A | 0.827

Variant | fraction ligated
A37T G38T | 0.838
A37T C42G | 0.849
A37T C42A | 0.85
A37T C42T | 0.858
G38A A57G | 0.855
G38A A57T | 0.819
G38A A57C | 0.825
G38A A39T | 0.829
G38A A39G | 0.854
G38A A39C | 0.817
A39T A41G | 0.769
A39T A41T | 0.775
A39T A41C | 0.782
G38T T43A | 0.808
G38T T43C | 0.814
G38T T43G | 0.773
A39T T44G | 0.827
A39T T44A | 0.79
A39T T44C | 0.821
A39G G46C | 0.781
A39G G46A | 0.843
A39G G46T | 0.783
G38A A56T | 0.808
G38A A56G | 0.783

Variant | fraction ligated
G38A A56C | 0.778
A39C G47T | 0.3
A39C G47A | 0.757
A39C G47C | 0.349
G38C G47T | 0.045
G38C G47A | 0.306
G38C G47C | 0.0356
G38C | 0.825
G38A | 0.844
G38T | 0.852
A39C A57T | 0.798
A39C A57C | 0.827
A39C A57G | 0.786
A39C T43A | 0.822
A39C T43C | 0.815
A39C T43G | 0.79
G38A T45A | 0.773
G38A T45G | 0.0379
G38A T45C | 0.696
A39G C42A | 0.829
A39G C42T | 0.843
A39G C42G | 0.834
